This is an account of results in PMC3145889 (Oncogene, 2011).

Ends that are not written are not given here.

Experiment [1] has as its target HMG20b (human (endogenous in 293T and HeLa)) (UniProt Q9P0W2). Briefly: co-IP.
Experiment [2] has as its target T1, His-HMG20b (human, UniProt Q9P0W2 1-317).
T1 sequence: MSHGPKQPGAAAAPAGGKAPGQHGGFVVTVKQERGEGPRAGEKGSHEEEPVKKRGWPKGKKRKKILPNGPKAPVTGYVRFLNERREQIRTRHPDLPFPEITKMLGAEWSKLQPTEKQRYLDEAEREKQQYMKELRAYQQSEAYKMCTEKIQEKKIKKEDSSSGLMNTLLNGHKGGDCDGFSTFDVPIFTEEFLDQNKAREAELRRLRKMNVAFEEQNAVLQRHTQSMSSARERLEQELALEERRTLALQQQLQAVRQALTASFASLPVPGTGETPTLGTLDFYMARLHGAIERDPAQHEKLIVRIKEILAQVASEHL
Briefly: pull-down.

In experiment [1], BRCA2, P51587 1-3418 returned a fraction of the protein present in the complex below 5%.

B1: Biotin-labelled BRC5 peptide (BRCA2 1661-1695) (peptide)
peptide: YSVIENSALAFYTSCSRKTSVSQTSLLEAKKWLRE
modifications: also: biotin label, position not given here
Take B1: in experiment [2], the binding result is listed as “binds”.
